This note sets out measurements from patent publication US20150174237A1 (HENRY M JACKSON FOUNDATION FOR THE ADVANCEMENT OF MILITARY …, published 2015).

In this assay the target is T1, mouse B cell CD21 (on mouse B cells) (mouse, UniProt P19070 12-1025).
T1 construct: whole, on cells
T1 sequence: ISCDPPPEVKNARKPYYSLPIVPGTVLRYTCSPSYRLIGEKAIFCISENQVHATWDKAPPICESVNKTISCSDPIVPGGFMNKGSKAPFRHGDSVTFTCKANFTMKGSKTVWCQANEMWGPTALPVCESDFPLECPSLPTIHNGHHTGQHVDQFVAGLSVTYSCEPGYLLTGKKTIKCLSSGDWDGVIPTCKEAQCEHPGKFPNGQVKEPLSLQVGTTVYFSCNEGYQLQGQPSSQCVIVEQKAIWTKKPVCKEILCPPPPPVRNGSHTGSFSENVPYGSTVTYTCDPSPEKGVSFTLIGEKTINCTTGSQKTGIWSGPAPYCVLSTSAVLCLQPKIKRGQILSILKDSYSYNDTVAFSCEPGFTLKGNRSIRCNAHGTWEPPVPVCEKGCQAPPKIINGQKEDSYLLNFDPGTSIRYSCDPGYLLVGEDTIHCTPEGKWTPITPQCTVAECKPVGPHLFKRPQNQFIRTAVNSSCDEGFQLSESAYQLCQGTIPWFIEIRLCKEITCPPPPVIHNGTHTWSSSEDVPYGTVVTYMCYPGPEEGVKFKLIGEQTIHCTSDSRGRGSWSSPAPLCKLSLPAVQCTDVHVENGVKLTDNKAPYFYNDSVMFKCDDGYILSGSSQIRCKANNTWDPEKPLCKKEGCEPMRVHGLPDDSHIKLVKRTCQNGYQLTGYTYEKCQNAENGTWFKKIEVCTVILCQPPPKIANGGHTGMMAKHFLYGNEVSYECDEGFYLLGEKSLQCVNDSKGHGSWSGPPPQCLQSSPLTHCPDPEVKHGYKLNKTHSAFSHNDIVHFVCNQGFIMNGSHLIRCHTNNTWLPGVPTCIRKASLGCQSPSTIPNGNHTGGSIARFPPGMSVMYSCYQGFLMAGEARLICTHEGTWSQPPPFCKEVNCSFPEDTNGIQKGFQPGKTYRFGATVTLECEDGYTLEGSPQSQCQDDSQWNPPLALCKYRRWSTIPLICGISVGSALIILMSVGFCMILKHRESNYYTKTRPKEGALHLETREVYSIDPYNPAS
Briefly: not described (own observation on mouse B cells).

B1: monomeric gp350 (truncated EBV gp350, amino acids 1-470, with His6 tag) (ligand)
chain: MEAALLVCQYTIQSLIHLTGEDPGFFNVEIPEFPFYPTCNVCTADVNVTINFDVGGKKHQLDLDFGQLTPHTKAVYQPRGAFGGSENATNLFLLELLGAGELALTMRSKKLPINVTTGEEQQVSLESVDVYFQDVFGTMWCHHAEMQNPVYLIPETVPYIKWDNCNSTNITAVVRAQGLDVTLPLSLPTSAQDSNFSVKTEMLGNEIDIECIMEDGEISQVLPGDNKFNITCSGYESHVPSGGILTSTSPVATPIPGTGYAYSLRLTPRPVSRFLGNNSILYVFYSGNGPKASGGDYCIQSNIVFSDEIPASQDMPTNTTDITYVGDNATYSVPMVTSEDANSPNVTVTAFWAWPNNTETDFKCKWTLTSGTPSGCENISGAFASNRTFDITVSGLGTAPKTLIITRTATNATTTTHKVIFSKAPESTTTSPTLNTTGFADPNTTTGLPSSTHVPTNLTAPASTGPTVSTHHHHHH
Turning to B1, the binding result is listed as “no binding”.
